Measured values as given in patent publication US20050019862.

Target: T1, human plasminogen, P00747
T1 chain: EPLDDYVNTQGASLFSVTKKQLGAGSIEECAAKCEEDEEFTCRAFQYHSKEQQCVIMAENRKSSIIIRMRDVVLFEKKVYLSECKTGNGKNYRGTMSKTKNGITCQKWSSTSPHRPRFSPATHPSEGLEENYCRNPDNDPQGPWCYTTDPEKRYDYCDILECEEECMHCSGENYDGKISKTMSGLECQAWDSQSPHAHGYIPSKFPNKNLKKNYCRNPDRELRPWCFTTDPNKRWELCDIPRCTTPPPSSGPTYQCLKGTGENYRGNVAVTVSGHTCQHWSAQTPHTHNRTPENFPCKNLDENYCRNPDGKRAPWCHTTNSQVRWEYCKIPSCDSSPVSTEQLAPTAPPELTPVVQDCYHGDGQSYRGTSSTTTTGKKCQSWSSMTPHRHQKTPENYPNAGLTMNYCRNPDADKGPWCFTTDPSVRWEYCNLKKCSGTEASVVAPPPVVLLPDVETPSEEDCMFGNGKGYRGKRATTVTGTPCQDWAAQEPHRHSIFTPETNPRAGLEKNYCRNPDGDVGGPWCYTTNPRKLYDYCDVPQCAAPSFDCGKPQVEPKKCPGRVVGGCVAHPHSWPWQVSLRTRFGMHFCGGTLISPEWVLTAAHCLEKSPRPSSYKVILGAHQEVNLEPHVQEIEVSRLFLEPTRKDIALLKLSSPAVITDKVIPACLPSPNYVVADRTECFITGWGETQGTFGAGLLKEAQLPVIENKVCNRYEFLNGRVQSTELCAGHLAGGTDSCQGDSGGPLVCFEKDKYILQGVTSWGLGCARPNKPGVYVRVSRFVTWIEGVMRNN

B1: recombinant staphylokinase (SAK) produced in E. coli from plasmid pOXYSAK-1 (protein)
chain: SSSFDKGKYKKGDDASYFEPTGPYLMVNVTGVDGKGNELLSPHYVEFPIKPGTTLTKEKIEYYVEWALDATAYKEFRVVELDPSAKIEVTYYDKNKKKEETKSFPITEKGFVVPDLSEHIKNPGFNLITKVVIEKK
  Specific activity of purified SAK protein: 1.75 U/µg protein
